# Test results as given in the RNAGym collection of RNA variant scans (doi:10.7554/elife.90254).
# B1: OR4K15 (parent)
# chain: GUUAACGGUCAUAGGCCAUGGAAACUAGGAGCACCAUUUCGCUGCCAGUGAAGAAAUGAACAAAGAAAAUCUGGGCCAGGCAGGCAUCAAAAGAAAUAGUCUUGCGCUCAACCAGAAAGUCUGUAAUCAUUUUAAGGGUA
# Variants of: B1
# Assay: self-cleavage, relative activity (ratio to wild type); higher = more cleavage; in vitro, sequencing; the parent is a self-cleaving ribozyme
row,Variant,self-cleavage
1,A22G A135U,1.86
2,A95G A110C,0.39
3,U3C U43C,0.78
4,A5G U87A,0.62
5,A5G U102C,1.34
6,A67U A116C,0.1
7,A13G A30G,1
8,A5G A27G,1.02
9,U43C A64G,1.66
10,A23G A82U,0.2
11,A36U A78C,0.23
12,A68G A117U,0.82
13,A86U U102C,2.39
14,U37C G84A,1.7
15,A51C A60G,2.31
16,A23G U133C,1.35
17,A47U U127A,0.24
18,A51U A126G,1.46
19,U39C A118U,0.78
20,U49A A134G,0.74
21,A5G A36G,0.8

row,Variant,self-cleavage
1,A68G A69C,0.94
2,C35U,1.06
3,C105G A117G,0.02
4,A36U A63G,1.98
5,U43C U108G,0.02
6,G8A A68G,2.15
7,G80A A114G,0.05
8,A24C U49C,1.53
9,A129G U130C,1.73
10,A5G U100C,1.11
11,A110C A134G,0.41
12,A51U A60G,0.92
13,A69U A114G,2.05
14,C76U U108C,0
15,G31A C32U,1.42
16,A54U A118G,0.95
17,A4U U70C,0.89
18,A60G A67C,0.77
19,A51G U124A,1.04
20,U57C A94U,1.23
21,A36U U103A,0.63

row,Variant,self-cleavage
1,A69G A114G,0.17
2,A11G C71G,0.34
3,C45A C101U,0.48
4,A114U U131C,0.02
5,A55G A68U,1.2
6,A5U G44U,0.8
7,A91U U132C,1.62
8,C40U A111G,0.02
9,G50U A82U,0.23
10,A90C A118G,1.04
11,G53C,1.74
12,A116U G138U,0.03
13,A36U A95G,2.18
14,A23G A68G,1.29
15,A60G A64U,1.46
16,A62G A66U,1.78
17,U19C A116U,0.3
18,G14U A56G,1.18
19,A89G A114G,0.36
20,A54G A66U,1.14
21,A22U C105U,0.18

row,Variant,self-cleavage
1,U39A A54U,1.18
2,U49C G83U,0.71
3,A118G U132A,1.11
4,G21U U108A,0.02
5,G48A A56G,1.34
6,A62G U100C,2.17
7,A22G A69U,1.28
8,A69U U100C,2.44
9,A51U G106A,0.03
10,U37G A118G,0.99
11,A111G C121A,0.03
12,G79U G104U,0.01
13,C85U U127C,0.82
14,G20U A67G,1.24
15,A47G A110G,0.1
16,U19A A129G,0.05
17,A67G A98G,0.36
18,A4G C113U,0.19
19,A92U U131C,1.36
20,C128A,0.84
